These results are taken from article PMC4714197, “The Tomato Nucleotide-binding Leucine-rich Repeat Immune Receptor I-2 Couples DNA-binding to Nucleotide-binding Domain Nucleotide Exchange” (The Journal of Biological Chemistry, 2015).

Data set [1] addresses T1, I-2_1–519 (Solanum lycopersicum, UniProt Q9XET3).
T1 construct: gene I2; CC-NB-ARC domains, residues 1-519, LRR lacking
As to the kind of experiment: ATPase assay, 3H-ATP, TLC. It counts as biochemical. The conditions noted are these: 5 uM ATP, 10 mM MgCl2, pH 7.5, 37 °C; without and with 2 uM DNA; labelled compound.

Data set [2] concerns the target T1, I-2_1–519. As to the kind of experiment: EMSA of […]-dsDNA binding with nucleotide. The conditions noted are these: 5 uM ADP, 10 mM ZnCl2, pH 8.0, on ice; ADP lowers DNA binding. Background: In EMSA bound probe runs differently from free probe, usually more slowly.
In data set [3] the target is T2, I-2_1–519 (Solanum lycopersicum, UniProt Q9XET3, S233F).
T2 construct: gene I2; CC-NB-ARC domains, residues 1-519, LRR lacking
As to the kind of experiment: EMSA of […]-dsDNA binding with nucleotide. The conditions noted are these: 5 uM ADP compared with 5 uM ATP; 10 mM ZnCl2, pH 8.0, on ice.

The subject of data set [4] is R1-NB (NB subdomain of Os02g_25900) (Oryza sativa (rice)). Nature of the data set: EMSA. The conditions noted are these: apparent Kd; EMSA: 20 mM Tris-HCl pH 8.0, 60 mM NaCl, 2 mM EDTA, 1 mM DTT, 10% glycerol, 0.1 mg/ml BSA, 0.15 nM nucleic acid, 20 min on ice (nucleotide tests + 10 mM ZnCl2 …).
The target of data set [5] is T3, I-2 CC-NB-ARC WT (I-2 1-519) (Solanum lycopersicum (tomato), UniProt Q9XET3 1-519).
T3 sequence: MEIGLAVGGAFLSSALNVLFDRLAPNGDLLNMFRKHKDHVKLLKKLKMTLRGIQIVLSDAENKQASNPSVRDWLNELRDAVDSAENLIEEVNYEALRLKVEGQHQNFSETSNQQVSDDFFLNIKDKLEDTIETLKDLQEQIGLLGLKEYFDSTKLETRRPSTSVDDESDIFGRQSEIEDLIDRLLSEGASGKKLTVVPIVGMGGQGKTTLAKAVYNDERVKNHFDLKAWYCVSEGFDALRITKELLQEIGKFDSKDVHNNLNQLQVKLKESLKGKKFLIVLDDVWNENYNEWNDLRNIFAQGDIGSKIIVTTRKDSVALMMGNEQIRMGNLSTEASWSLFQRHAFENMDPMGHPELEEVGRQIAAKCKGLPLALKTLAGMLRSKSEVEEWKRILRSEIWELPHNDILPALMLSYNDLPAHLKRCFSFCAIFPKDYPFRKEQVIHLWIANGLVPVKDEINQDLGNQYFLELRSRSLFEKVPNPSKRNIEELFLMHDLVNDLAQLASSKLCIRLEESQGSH
As to the kind of experiment: EMSA; apparent Kd; EMSA: 20 mM Tris-HCl pH 8.0, 60 mM NaCl, 2 mM EDTA, 1 mM DTT, 10% glycerol, 0.1 mg/ml BSA, 0.15 nM nucleic acid, 20 min on ice (nucleotide tests + 10 mM ZnCl2 as printed); anisotropy: 6.7 mM Tris-HCl pH 8.0, 3.3 mM Na acetate, 2 mM EDTA, 10 nM DNA, 25 C; P1: 20 mM Tris acetate pH 7.5, 10 mM Mg acetate, 100 mM NaCl, 37 C. The note with it: protein: recombinant, label: 32P end label.

In data set [6] the target is T4, I-2 CC-NB-ARC K207R (Solanum lycopersicum (tomato), UniProt Q9XET3 1-519, K207R).
T4 sequence: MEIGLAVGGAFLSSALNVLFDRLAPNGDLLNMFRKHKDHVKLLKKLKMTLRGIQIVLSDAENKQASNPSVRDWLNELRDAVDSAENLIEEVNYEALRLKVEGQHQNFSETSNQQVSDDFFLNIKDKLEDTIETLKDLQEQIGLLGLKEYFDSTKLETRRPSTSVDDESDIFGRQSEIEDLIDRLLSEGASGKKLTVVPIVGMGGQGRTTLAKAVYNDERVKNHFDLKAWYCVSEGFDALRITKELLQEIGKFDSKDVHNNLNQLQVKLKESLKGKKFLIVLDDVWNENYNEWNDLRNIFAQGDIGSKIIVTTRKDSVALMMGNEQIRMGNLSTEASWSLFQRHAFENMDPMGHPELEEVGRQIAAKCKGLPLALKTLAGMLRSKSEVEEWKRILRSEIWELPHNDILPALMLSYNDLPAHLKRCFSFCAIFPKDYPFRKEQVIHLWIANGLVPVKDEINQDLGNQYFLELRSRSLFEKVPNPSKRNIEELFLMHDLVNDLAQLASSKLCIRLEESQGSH
Described as above. The conditions noted are these: protein: recombinant; label: 32P end label; blunt.

The target of data set [7] is T5, I-2 CC-NB-ARC S233F (Solanum lycopersicum (tomato), UniProt Q9XET3 1-519, S233F).
T5 sequence: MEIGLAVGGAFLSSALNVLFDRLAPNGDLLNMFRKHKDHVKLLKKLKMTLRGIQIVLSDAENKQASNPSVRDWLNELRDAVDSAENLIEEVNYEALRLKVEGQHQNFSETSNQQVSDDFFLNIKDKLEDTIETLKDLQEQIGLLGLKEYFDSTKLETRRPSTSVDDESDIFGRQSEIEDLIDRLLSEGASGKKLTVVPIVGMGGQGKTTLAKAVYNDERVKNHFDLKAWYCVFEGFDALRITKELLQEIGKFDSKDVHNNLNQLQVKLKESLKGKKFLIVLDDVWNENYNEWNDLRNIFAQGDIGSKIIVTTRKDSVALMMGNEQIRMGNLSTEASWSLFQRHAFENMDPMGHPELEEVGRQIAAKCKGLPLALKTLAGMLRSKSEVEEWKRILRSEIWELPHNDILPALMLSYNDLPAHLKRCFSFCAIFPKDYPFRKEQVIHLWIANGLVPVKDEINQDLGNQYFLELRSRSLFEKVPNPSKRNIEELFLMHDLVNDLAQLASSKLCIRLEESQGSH
Nature of the data set: EMSA; indistinguishable from WT; EMSA: 20 mM Tris-HCl pH 8.0, 60 mM NaCl, 2 mM EDTA, 1 mM DTT, 10% glycerol, 0.1 mg/ml BSA, 0.15 nM nucleic acid, 20 min on ice (nucleotide tests + 10 mM ZnCl2 as printed); anisotropy: 6.7 mM Tris-HCl pH 8.0, 3.3 mM Na acetate, 2 mM EDTA, 10 nM DNA, 25 C; P1: 20 mM Tris acetate pH 7.5, 10 mM Mg acetate, 100 mM NaCl, 37 C. The note with it: protein: recombinant; label: 32P end label; blunt.

The target of data set [8] is T3, I-2 CC-NB-ARC WT (I-2 1-519). As to the kind of experiment: EMSA; 5 uM ATP, 10 mM ZnCl2 (so in the source); EMSA: 20 mM Tris-HCl pH 8.0, 60 mM NaCl, 2 mM EDTA, 1 mM DTT, 10% glycerol, 0.1 mg/ml BSA, 0.15 nM nucleic acid, 20 min on ice (nucleotide tests + 10 mM ZnCl2 as printed); anisotropy: 6.7 mM Tris-HCl pH 8.0, 3.3 mM Na acetate, 2 mM EDTA, 10 nM DNA, 25 C; P1: 20 mM Tris acetate pH 7.5, 10 mM Mg acetate, 100 mM NaCl, 37 C. The conditions noted are these: protein: recombinant; label: 32P end label; blunt.

Data set [9] shares this target. As to the kind of experiment: fluorescence anisotropy; EMSA: 20 mM Tris-HCl pH 8.0, 60 mM NaCl, 2 mM EDTA, 1 mM DTT, 10% glycerol, 0.1 mg/ml BSA, 0.15 nM nucleic acid, 20 min on ice (nucleotide tests + 10 mM ZnCl2 as printed); anisotropy: 6.7 mM Tris-HCl pH 8.0, 3.3 mM Na acetate, 2 mM EDTA, 10 nM DNA, 25 C; P1: 20 mM Tris acetate pH 7.5, 10 mM Mg acetate, 100 mM NaCl, 37 C. The note with it: protein: recombinant; label: fluorescein end label on SS1s; blunt.

For data set [10], the target named is T4, I-2 CC-NB-ARC K207R. Described as above. The note with it: protein: recombinant; label: fluorescein end label on SS1s; blunt.

As for `Nc1ncnc2c1ncn2[C@@H]1O[C@H](COP(=O)(O)OP(=O)(O)OP(=O)(O)O)[C@@H](O)[C@H]1O` [ATP], in [1], the ATPase activity result is on record as “The CC-NB-ARC domain of I-2 has a very low intrinsic ATPase activity in vitro”.
With `Nc1ncnc2c1ncn2[C@@H]1O[C@H](COP(=O)(O)OP(=O)(O)O)[C@@H](O)[C@H]1O` [ADP], in data set [2], the “ratio of DNA binding with ADP vs with ATP or no nucleotide” value is given as ~ 0.65. For the same molecule, in [3], the “% DNA binding with ADP relative to ATP” value is recorded as 61 ± 7%.
Take “UGGGUCAACGUGGGCAAAGAUGUCCUAGCAAUGUAAUCGUCUAUGACGUU [ssRNA sense strand (50 nt)]”: the Kd in data set [4] amounted to 12400 nM.
Same read-out and setting: the figure for “TGGGTCAACGTGGGCAAAGATGTCCTAGCAATGTAATCGTCTATGACGTT [SS1 ssDNA (50 nt)]” is 3340 nM; for “TGGGTCAACGTGGGCAAAGATGTCCTAGCAATGTAATCGTCTATGACGTT (double strand) [SS1/SS2 dsDNA (50 bp)]” it is 2750 nM.

B1: SS1 ssDNA (50 nt) (ssDNA)
DNA: TGGGTCAACGTGGGCAAAGATGTCCTAGCAATGTAATCGTCTATGACGTT
B1: the Kd in data set [5] (single strand) came to 150 ± 10 nM.

B2: SS1/SS2 dsDNA (50 bp) (dsDNA)
DNA 1: TGGGTCAACGTGGGCAAAGATGTCCTAGCAATGTAATCGTCTATGACGTT
DNA 2: AACGTCATAGACGATTACATTGCTAGGACATCTTTGCCCACGTTGACCCA
B2: the Kd turned out to be 220 ± 20 nM in data set [5] (blunt) and 230 ± 10 nM in [6]. Besides, the binding result in data set [7] is on record as “binds”. In addition, the binding signal in data set [8] was ~1 ratio to no nucleotide.

B3: SS1s/SS2s dsDNA (20 bp), anisotropy (dsDNA)
DNA 1: TGGGTCAACGTGGGCAAAGA
DNA 2: TCTTTGCCCACGTTGACCCA
Regarding B3, the Kd worked out at 320 ± 50 nM in data set [9] and 940 ± 90 nM in data set [10].
